For one assay, the target named is T1, 4H1081-bH.
T1 chain: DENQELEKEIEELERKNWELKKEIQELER
The experiment in a line: two-hybrid library CCNG1.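 Further: natural log of median RNA to DNA barcode read ratio; higher means stronger binding.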 To be noted: mean of both orientations.

In the next assay the target is T2, 4H112-bH.
T2 chain: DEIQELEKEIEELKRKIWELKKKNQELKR
Briefly: two-hybrid library CCNG1.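 Further: natural log of median RNA to DNA barcode read ratio; higher means stronger binding.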

A further assay concerns the target T3, 4H1158-bH.
T3 chain: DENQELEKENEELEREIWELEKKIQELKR
Briefly: two-hybrid library CCNG1.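 Further: natural log of median RNA to DNA barcode read ratio; higher means stronger binding.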

Another assay concerns the target T4, 4H118-bH.
T4 chain: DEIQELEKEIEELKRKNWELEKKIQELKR
Briefly: two-hybrid library CCNG1.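 Further: natural log of median RNA to DNA barcode read ratio; higher means stronger binding.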

For the next assay, the target named is T5, 4H1348-bH.
T5 chain: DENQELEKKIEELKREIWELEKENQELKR
Briefly: two-hybrid library CCNG1.

The target of a further assay is T6, 4H1373-bH.
T6 chain: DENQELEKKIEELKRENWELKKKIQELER
The experiment in a line: two-hybrid library CCNG1.

In the next assay the target is T7, 4H1544-bH.
T7 chain: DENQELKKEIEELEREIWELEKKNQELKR
Briefly: two-hybrid library CCNG1.

The target in a further assay is T8, 4H170-bH.
T8 chain: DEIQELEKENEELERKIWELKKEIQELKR
The experiment in a line: two-hybrid library CCNG1.

Another assay addresses T9, 4H1710-bH.
T9 chain: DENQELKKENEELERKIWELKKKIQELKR
The experiment in a line: two-hybrid library CCNG1.

For another assay, the target named is T10, 4H1831-bH.
T10 chain: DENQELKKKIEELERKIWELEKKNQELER
Briefly: two-hybrid library CCNG1.

The target in a further assay is T11, 4H1899-bH.
T11 chain: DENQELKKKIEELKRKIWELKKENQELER
The experiment in a line: two-hybrid library CCNG1.

For a further assay, the target named is T12, 4H1985-bH.
T12 chain: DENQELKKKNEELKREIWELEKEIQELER
The experiment in a line: two-hybrid library CCNG1.

In the next assay the target is T13, 4H2586-bH.
T13 chain: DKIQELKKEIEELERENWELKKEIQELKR
The experiment in a line: two-hybrid library CCNG1.

Another assay addresses T14, 4H2627-bA.
T14 chain: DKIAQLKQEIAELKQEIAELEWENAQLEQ
The experiment in a line: two-hybrid library CCNG1.

The next assay deals with T15, 4H2627-bH.
T15 chain: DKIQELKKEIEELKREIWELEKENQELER
Briefly: two-hybrid library CCNG1.

Another assay addresses T16, 4H2673-bH.
T16 chain: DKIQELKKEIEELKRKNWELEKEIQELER
Briefly: two-hybrid library CCNG1.

A further assay has as its target T17, 4H2702-bH.
T17 chain: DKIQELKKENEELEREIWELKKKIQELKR
Briefly: two-hybrid library CCNG1.

The target in a further assay is T18, 4H2717-bA.
T18 chain: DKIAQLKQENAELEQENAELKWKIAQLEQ
Briefly: two-hybrid library CCNG1.

In the next assay the target is T19, 4H3010-bH.
T19 chain: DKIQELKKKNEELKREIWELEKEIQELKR
Briefly: two-hybrid library CCNG1.

The target of the next assay is T20, 4H3112-bH.
T20 chain: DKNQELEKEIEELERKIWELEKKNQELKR
Briefly: two-hybrid library CCNG1.

The target of another assay is T21, 4H3162-bH.
T21 chain: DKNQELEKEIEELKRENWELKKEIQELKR
The experiment in a line: two-hybrid library CCNG1.

The target in a further assay is T22, 4H3175-bH.
T22 chain: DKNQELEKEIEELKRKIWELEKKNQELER
Briefly: two-hybrid library CCNG1.

The target in another assay is T23, 4H3277-bH.
T23 chain: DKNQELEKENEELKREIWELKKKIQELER
The experiment in a line: two-hybrid library CCNG1.

The next assay concerns the target T24, 4H3298-bH.
T24 chain: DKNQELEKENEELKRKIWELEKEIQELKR
The experiment in a line: two-hybrid library CCNG1.

The next assay deals with T25, 4H3427-bH.
T25 chain: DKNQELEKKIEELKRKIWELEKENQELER
Briefly: two-hybrid library CCNG1.

The target of another assay is T26, 4H346-bH.
T26 chain: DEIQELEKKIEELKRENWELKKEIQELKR
The experiment in a line: two-hybrid library CCNG1.

Another assay concerns the target T27, 4H3462-bH.
T27 chain: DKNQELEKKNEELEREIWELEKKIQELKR
The experiment in a line: two-hybrid library CCNG1.

Another assay deals with T28, 4H3497-bH.
T28 chain: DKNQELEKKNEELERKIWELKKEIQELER
Briefly: two-hybrid library CCNG1.

In another assay the target is T29, 4H3613-bH.
T29 chain: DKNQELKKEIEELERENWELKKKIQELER
Briefly: two-hybrid library CCNG1.

The target of the next assay is T30, 4H3628-bH.
T30 chain: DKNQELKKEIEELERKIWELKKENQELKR
The experiment in a line: two-hybrid library CCNG1.

Another assay deals with T31, 4H3926-bH.
T31 chain: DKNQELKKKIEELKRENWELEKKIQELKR
The experiment in a line: two-hybrid library CCNG1. Conditions: mean of both orientations.

A further assay addresses T32, 4H4073-bH.
T32 chain: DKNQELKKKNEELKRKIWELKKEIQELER
The experiment in a line: two-hybrid library CCNG1.

A further assay concerns the target T33, 4H457-bH.
T33 chain: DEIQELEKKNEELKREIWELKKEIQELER
The experiment in a line: two-hybrid library CCNG1.

In another assay the target is T34, 4H575-bH.
T34 chain: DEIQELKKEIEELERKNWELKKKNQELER
The experiment in a line: two-hybrid library CCNG1.

The next assay addresses T35, 4H591-bH.
T35 chain: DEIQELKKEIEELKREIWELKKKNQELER
The experiment in a line: two-hybrid library CCNG1.

Another assay deals with T36, 4H626-bH.
T36 chain: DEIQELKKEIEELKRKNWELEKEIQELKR
Briefly: two-hybrid library CCNG1.

The next assay concerns the target T37, 4H683-bH.
T37 chain: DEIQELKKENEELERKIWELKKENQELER
The experiment in a line: two-hybrid library CCNG1.

Another assay has as its target T38, 4H754-bH.
T38 chain: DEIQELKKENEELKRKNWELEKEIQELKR
The experiment in a line: two-hybrid library CCNG1.

For the next assay, the target named is T39, 4H780-bH.
T39 chain: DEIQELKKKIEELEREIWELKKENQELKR
Briefly: two-hybrid library CCNG1.

A further assay concerns the target T40, 4H797-bH.
T40 chain: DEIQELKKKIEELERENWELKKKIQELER
Briefly: two-hybrid library CCNG1.

The next assay addresses T41, 4H855-bH.
T41 chain: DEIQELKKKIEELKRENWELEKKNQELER
The experiment in a line: two-hybrid library CCNG1.

Another assay concerns the target T42, 4H906-bH.
T42 chain: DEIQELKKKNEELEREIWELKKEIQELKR
Briefly: two-hybrid library CCNG1.

A further assay concerns the target T43, 4H918-bH.
T43 chain: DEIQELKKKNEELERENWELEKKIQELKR
The experiment in a line: two-hybrid library CCNG1.

The target of another assay is T44, 4H953-bH.
T44 chain: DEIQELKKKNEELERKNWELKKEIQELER
Briefly: two-hybrid library CCNG1.

The target in a further assay is T45, 4H953-bN.
T45 chain: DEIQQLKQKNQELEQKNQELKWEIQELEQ
The experiment in a line: two-hybrid library CCNG1.

The target of a further assay is T46, 4H968-bH.
T46 chain: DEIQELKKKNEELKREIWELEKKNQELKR
Briefly: two-hybrid library CCNG1.

Another assay concerns the target T47, O6-bS.
T47 chain: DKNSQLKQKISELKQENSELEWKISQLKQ
The experiment in a line: two-hybrid library CCNG1.

The next assay deals with T48, Core_IIII-es_KKEK.
T48 chain: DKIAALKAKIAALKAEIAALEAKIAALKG
The experiment in a line: two-hybrid library CCmax. To be noted: mean of both orientations.

The values that follow come from article PMC10397247.

B1: 4H1081-bH (peptide)
chain: DENQELEKEIEELERKNWELKKEIQELER
Consider B1, for which the interaction score with 4H1081-bH is -1.95; with 4H112-bH, -1.77; with 4H1158-bH, 0.0141; in the assay with 4H118-bH, -1.07; in the assay with 4H1348-bH it was -1.51; in the assay with 4H1373-bH, -1.35. For the same molecule, the interaction score with 4H1544-bH was -1.4; in the assay with 4H170-bH, -0.0634; in the assay with 4H1710-bH it was -2.01; in the assay with 4H1831-bH, -1.05; in the assay with 4H1899-bH, -0.674; with 4H1985-bH it was -1.01. Also, the interaction score was -2.05 in the assay with 4H2586-bH; 0.747 with 4H2627-bA; 0.276 with 4H2627-bH; -0.0547 with 4H2673-bH; 1.09 in the assay with 4H2702-bH; -0.543 with 4H2717-bA. In addition, the interaction score with 4H3010-bH was -1.02; with 4H3112-bH, -0.896; with 4H3162-bH, -0.705; with 4H3175-bH, -0.0753; with 4H3277-bH, -0.363; with 4H3298-bH, -0.0402. Moreover, the interaction score in the assay with 4H3427-bH was -0.522; in the assay with 4H346-bH it was 0.118; with 4H3462-bH, -0.765; with 4H3497-bH, -1.2; in the assay with 4H3613-bH, -1.47; with 4H3628-bH it was -1.16. For the same molecule, the interaction score is 1.74 with 4H3926-bH; -1.25 with 4H4073-bH; -0.677 in the assay with 4H457-bH; -2.22 with 4H575-bH; -0.509 with 4H591-bH; -0.576 in the assay with 4H626-bH. Moreover, the interaction score with 4H683-bH was -0.574; with 4H754-bH, -0.22; in the assay with 4H780-bH it was -0.372; with 4H797-bH, -0.717; with 4H855-bH it was -0.163; with 4H906-bH, -0.686. Also, the interaction score in the assay with 4H918-bH is -0.0748; with 4H953-bH, -0.931; with 4H953-bN, -0.336; in the assay with 4H968-bH it was -0.887; with O6-bS, 1.86.

B2: Core_IIII-es_EEKE (peptide)
chain: DEIAALEAEIAALEAKIAALKAEIAALEG
Consider B2, for which the interaction score with Core_IIII-es_KKEK is 2.36.
